Assay results reported in patent US20230212549A1 (3B PHARMACEUTICALS, published 2023).
Several values for one entry are separate records, joined by “and”; a condition that tells them apart may be missing. Identical values can stand only once. Numbered stars: 1 amine (or outer) side, 2 acyl side, 3 side chain; on linkers, the order of the positions; unused ones are H or OH. Bridge positions count the residues as written; N and C are the ends. Square brackets hold non-standard residues; d marks the D form. Primed or numbered codes have the meaning given here. * marks the point of attachment. tMeBn(LuDOTA-AET) = 1,3,5-trimethylbenzylidene (from 1,3,5-tris(bromomethyl)benzene) bridge with two thioethers to the Cys, its third CH2 carries AET (2-aminoethanethiol, attached through S), whose amine is acylated by DOTA complexing lutet, O=C([O-])CN1CCN(CC(=O)[O-])CCN(CC(=O)NCCSCc2cc(C[*:1])cc(C[*:2])c2)CCN(CC(=O)[O-])CC1.[Lu+3]; tMeBn(DOTA-PP) = 1,3,5-trimethylbenzylidene, two thioethers to Cys, third CH2 bound to one N of piperazine whose other N bears DOTA, O=C(O)CN1CCN(CC(=O)O)CCN(CC(=O)N2CCN(Cc3cc(C[*:1])cc(C[*:2])c3)CC2)CCN(CC(=O)O)CC1; Ttds″ = 1,13-diamino-4,7,10-trioxatridecan-succinamic acid spacer, O=C(CCC(=O)[*:2])NCCCOCCOCCOCCCN[*:1]; TBMB(SCH2CH2NH-DOTA) = O=C(O)CN1CCN(CC(=O)O)CCN(CC(=O)NCCSCc2cc(C[*:1])cc(C[*:2])c2)CCN(CC(=O)O)CC1; Ttds = 1,13-diamino-4,7,10-trioxatridecan-succinamic acid, O=C(CCC(=O)[*:2])NCCCOCCOCCOCCCN[*:1]; 3MeBn = 3-Methylbenzylidene (m-xylylene thioether bridge from α,α′-dibromo-m-xylene); N4Ac = 6-Carboxy-1,4,8,11-tetraazaundecane, an N4-chelator, NCCNCC(CNCCN)C(=O)*; DOTA = O=C(O)CN1CCN(CC(=O)O)CCN(CC(=O)*)CCN(CC(=O)O)CC1; nBu‑CAyl = n-butylaminocarbonyl, CCCCNC(=O)*; mXylylene = c1cc(C[*:1])cc(C[*:2])c1; Pentanesulfonyl = CCCCCS(=O)(=O)*; NMeF = CN[C@@H](Cc1ccccc1)C(=O)O; AF488 = Alexa Fluor 488 label; Nle = CCCC[C@H](N)C(=O)O; Hexanoyl = CCCCCC(=O)*; AEEA = NCCOCCOCC(=O)O; Ahx = NCCCCCC(=O)O; GABA = NCCCC(=O)O; Sar = CNCC(=O)O

What was measured:
[1] = target: T1, human fibroblast activation protein (FAP) on WI-38 fibroblasts (human, UniProt Q12884 1-760); experiment: competitive FACS, WI-38 cells, Cy5-labeled peptide as competitor
T1 construct: FAP-expressing human WI-38 fibroblasts (ECACC)

[2] = target: T2, Recombinant human FAP (R&D systems, #3715-SE) (human, UniProt Q12884 26-760); experiment: cell-based or functional assay
[3] = target: T2, Recombinant human FAP (R&D systems, …); experiment: SPR (Biacore T200), FAP captured on anti-FAP antibody, single cycle kinetics
[4] = target: T3, fibroblast activation protein (FAP) on FAP-expressing human WI-38 fibroblasts (human, UniProt Q12884 1-760); experiment: competitive FACS, WI-38 cells, vs Cy5 tracer m3; C = pIC50 6.1-7.0
T3 construct: also called human FAP

[5] = target: Recombinant human FAP (R&D systems, #3715-SE) (human, UniProt Q12884 26-760); experiment: cell-based or functional assay; remark: listed apart in the source

Binder	pIC50 Category (FACS) [1]	pIC50 Category (Activity) [2]	pKD Category [3]	pIC50 Category (FACS) [4]	pIC50 Category (Activity) [5]
{DOTA}-[Ttds][Nle]CPPTQFCD[Ttds]K(DOTA)-NH2 (linker 3-9 via mXylylene; SMILES CCCC[C@H](NC(=O)CCC(=O)NCCCOCCOCCOCCCNC(=O)CN1CCN(CC(=O)O)CCN(CC(=O)O)CCN(CC(=O)O)CC1)C(=O)N[C@H]1CSCc2cccc(c2)CSC[C@@H](C(=O)N[C@@H](CC(=O)O)C(=O)NCCCOCCOCCOCCCNC(=O)CCC(=O)N[C@@H](CCCCNC(=O)CN2CCN(CC(=O)O)CCN(CC(=O)O)CCN(CC(=O)O)CC2)C(N)=O)NC(=O)[C@H](Cc2ccccc2)NC(=O)[C@H](CCC(N)=O)NC(=O)[C@H]([C@@H](C)O)NC(=O)[C@@H]2CCCN2C(=O)[C@@H]2CCCN2C1=O, also called 3BP-4393) [DOTA-Ttds-Nle-[Cys(3MeBn)-Pro-Pro-Thr-Gln-Phe-Cys]-Asp-Ttds-Lys(DOTA)-NH2]	> 8 pIC50	> 8 pIC50			
Hexanoyl-CPPTQFCD[GABA]R[Ttds″]K(AF488)-NH2 (linker 1-7 via tMeBn(LuDOTA-AET); not fully specified (residue 1); printed as Hex-[Cys(tMeBn(LuDOTA-AET))-Pro-Pro-Thr-Gln-Phe-Cys]-Asp-Gab-Arg-Ttds-Lys(AF488)-NH2; also: DOTA complexing lutetium, also called 3BP-4372) [Hex-[Cys(tMeBn(LuDOTA-AET))-Pro-Pro-Thr-Gln-Phe-Cys]-Asp-Gab-Arg-Ttds-Lys(AF488)-NH2]	> 8 pIC50	> 8 pIC50			
Hexanoyl-CPPTEFC-OH (linker 1-7 via TBMB(SCH2CH2NH-DOTA); SMILES CCCCCC(=O)N[C@H]1CSCc2cc(CSCCNC(=O)CN3CCN(CC(=O)O)CCN(CC(=O)O)CCN(CC(=O)O)CC3)cc(c2)CSC[C@@H](C(=O)O)NC(=O)[C@H](Cc2ccccc2)NC(=O)[C@H](CCC(=O)O)NC(=O)[C@H]([C@@H](C)O)NC(=O)[C@@H]2CCCN2C(=O)[C@@H]2CCCN2C1=O, also called 3BP-4250) [Hex-[Cys-(tMeBn(DOTA-AET))-Pro-Pro-Thr-Glu-Phe-Cys]-OH]	> 8 pIC50		> 8 pKD		
Hexanoyl-C[Sar]PTQFC-OH (bridge 1-7; not fully specified (residue 1, bridges); printed as Hex-[Cys(tMeBn(DOTA-PP))-Nmg-Pro-Thr-Gln-Phe-Cys]-OH, also called 3BP-3771) [Hex-[Cys(tMeBn(DOTA-PP))-Nmg-Pro-Thr-Gln-Phe-Cys]-OH]	> 8 pIC50	> 8 pIC50			
Pentanesulfonyl-CPPTQFCD-NH2 (linker 1-7 via tMeBn(InDOTA-PP); also: In complex of DOTA (InDOTA), also called 3BP-3717) [Pentyl-SO2-[Cys(tMeBn(InDOTA-PP))-Pro-Pro-Thr-Gln-Phe-Cys]-Asp-NH2]	> 8 pIC50	> 8 pIC50	> 8 pKD		
Hexanoyl-CPPAAFCD-NH2 (linker 1-7 via tMeBn(DOTA-PP); SMILES CCCCCC(=O)N[C@H]1CSCc2cc(cc(CN3CCN(C(=O)CN4CCN(CC(=O)O)CCN(CC(=O)O)CCN(CC(=O)O)CC4)CC3)c2)CSC[C@@H](C(=O)N[C@@H](CC(=O)O)C(N)=O)NC(=O)[C@H](Cc2ccccc2)NC(=O)[C@H](C)NC(=O)[C@H](C)NC(=O)[C@@H]2CCCN2C(=O)[C@@H]2CCCN2C1=O, also called 3BP-3746) [Hex-[Cys(tMeBn(DOTA-PP))-Pro-Pro-Ala-Ala-Phe-Cys]-Asp-NH2]	≤ 6 pIC50				
Hexanoyl-CPPTQFCG-OH (linker 1-7 via tMeBn(InDOTA-AET); also: In complex (InDOTA), also called 3BP-3714) [Hex-[Cys(tMeBn(InDOTA-AET))-Pro-Pro-Thr-Gln-Phe-Cys]-Gly-OH]	> 8 pIC50	> 8 pIC50	> 8 pKD		
Hexanoyl-CPPTQFCD-NH2 (linker 1-7 via tMeBn(H-O2Oc-PP), also called 3BP-3967) [Hex-[Cys-(tMeBn(H-O2Oc-PP))-Pro-Pro-Thr-Gln-Phe-Cys]-Asp-NH2]	> 8 pIC50	> 8 pIC50			
{DOTA}-[Ahx]CPPTEFCDH[NMeF]RD-NH2 (linker 2-8 via mXylylene; SMILES C[C@@H](O)[C@@H]1NC(=O)[C@@H]2CCCN2C(=O)[C@@H]2CCCN2C(=O)[C@@H](NC(=O)CCCCCNC(=O)CN2CCN(CC(=O)O)CCN(CC(=O)O)CCN(CC(=O)O)CC2)CSCc2cccc(c2)CSC[C@@H](C(=O)N[C@@H](CC(=O)O)C(=O)N[C@@H](Cc2c[nH]cn2)C(=O)N(C)[C@@H](Cc2ccccc2)C(=O)N[C@@H](CCCNC(=N)N)C(=O)N[C@@H](CC(=O)O)C(N)=O)NC(=O)[C@H](Cc2ccccc2)NC(=O)[C@H](CCC(=O)O)NC1=O, also called 3BP-3266) [DOTA-Ahx-[Cys(3MeBn)-Pro-Pro-Thr-Glu-Phe-Cys]-Asp-His-Nmf-Arg-Asp-NH2]				6.1 pIC50 and 7 pIC50	6.1 pIC50 and 7 pIC50
{nBu‑CAyl}-C[Sar]PTQFC-OH (linker 1-7 via TBMB(SCH2CH2NH-DOTA); SMILES CCCCNC(=O)N[C@H]1CSCc2cc(CSCCNC(=O)CN3CCN(CC(=O)O)CCN(CC(=O)O)CCN(CC(=O)O)CC3)cc(c2)CSC[C@@H](C(=O)O)NC(=O)[C@H](Cc2ccccc2)NC(=O)[C@H](CCC(N)=O)NC(=O)[C@H]([C@@H](C)O)NC(=O)[C@@H]2CCCN2C(=O)CN(C)C1=O, also called 3BP-4607) [nBu-CAyl-[Cys(tMeBn(DOTA-AET))-Nmg-Pro-Thr-Gln-Phe-Cys]-OH]	> 8 pIC50	> 8 pIC50			
{nBu‑CAyl}-C[Sar]PTQFC-NH2 (linker 1-7 via TBMB(SCH2CH2NH-DOTA); SMILES CCCCNC(=O)N[C@H]1CSCc2cc(CSCCNC(=O)CN3CCN(CC(=O)O)CCN(CC(=O)O)CCN(CC(=O)O)CC3)cc(c2)CSC[C@@H](C(N)=O)NC(=O)[C@H](Cc2ccccc2)NC(=O)[C@H](CCC(N)=O)NC(=O)[C@H]([C@@H](C)O)NC(=O)[C@@H]2CCCN2C(=O)CN(C)C1=O, also called 3BP-4621) [nBu-CAyl-[Cys(tMeBn(DOTA-AET))-Nmg-Pro-Thr-Gln-Phe-Cys]-NH2]	> 8 pIC50	> 8 pIC50			
N4Ac-[AEEA][Nle]CPPTEFC-OH (linker 3-9 via 3MeBn, also called 3BP-4228) [N4Ac-O2Oc-Nle-[Cys-(3MeBn)-Pro-Pro-Thr-Glu-Phe-Cys]-OH]	≤ 6 pIC50				
Hexanoyl-CPPTQFCD-NH2 (linker 1-7 via tMeBn(H-O2Oc-AET), also called 3BP-4003) [Hex-[Cys-(tMeBn(H-O2Oc-AET))-Pro-Pro-Thr-Gln-Phe-Cys]-Asp-NH2]	> 8 pIC50	> 8 pIC50			
{DOTA}-[AEEA]CPPTEFCDH[NMeF]RD-NH2 (linker 2-8 via mXylylene; SMILES C[C@@H](O)[C@@H]1NC(=O)[C@@H]2CCCN2C(=O)[C@@H]2CCCN2C(=O)[C@@H](NC(=O)COCCOCCNC(=O)CN2CCN(CC(=O)O)CCN(CC(=O)O)CCN(CC(=O)O)CC2)CSCc2cccc(c2)CSC[C@@H](C(=O)N[C@@H](CC(=O)O)C(=O)N[C@@H](Cc2c[nH]cn2)C(=O)N(C)[C@@H](Cc2ccccc2)C(=O)N[C@@H](CCCNC(=N)N)C(=O)N[C@@H](CC(=O)O)C(N)=O)NC(=O)[C@H](Cc2ccccc2)NC(=O)[C@H](CCC(=O)O)NC1=O, also called 3BP-3267) [DOTA-O2Oc-[Cys(3MeBn)-Pro-Pro-Thr-Glu-Phe-Cys]-Asp-His-Nmf-Arg-Asp-NH2]				6.1 pIC50 and 7 pIC50	6.1 pIC50 and 7 pIC50
H-[Ahx][Ttds][Nle]CPPTQFCD-NH2 (linker 4-10 via mXylylene; SMILES CCCC[C@H](NC(=O)CCC(=O)NCCCOCCOCCOCCCNC(=O)CCCCCN)C(=O)N[C@H]1CSCc2cccc(c2)CSC[C@@H](C(=O)N[C@@H](CC(=O)O)C(N)=O)NC(=O)[C@H](Cc2ccccc2)NC(=O)[C@H](CCC(N)=O)NC(=O)[C@H]([C@@H](C)O)NC(=O)[C@@H]2CCCN2C(=O)[C@@H]2CCCN2C1=O, also called 3BP-3980) [H-Ahx-Ttds-Nle-[Cys-(3MeBn)-Pro-Pro-Thr-Gln-Phe-Cys]-Asp-NH2]	> 8 pIC50	> 8 pIC50			
Hexanoyl-C[Sar]PTQFC-OH (linker 1-7 via tMeBn(InDOTA-AET); not fully specified (residue 1); printed as Hex--[C(tMeBn(InDOTA--AET))--Nmg-PTQFC]-OH; also: DOTA complexing indium, also called 3BP-3716) [Hex-[Cys(tMeBn(InDOTA-AET))-Nmg-Pro-Thr-Gln-Phe-Cys]-OH]	> 8 pIC50	> 8 pIC50	> 8 pKD		
Hexanoyl-CPPTQFCD[Ttds″]K(DOTA)-NH2 (linker 1-7 via TBMB(SCH2CH2NH-DOTA); not fully specified (residue 1); printed as Hex-[Cys(tMeBn(DOTA-AET))-Pro-Pro-Thr-Gln-Phe-Cys]-Asp-Ttds-Lys(DOTA)-NH2, also called 3BP-4391) [Hex-[Cys(tMeBn(DOTA-AET))-Pro-Pro-Thr-Gln-Phe-Cys]-Asp-Ttds-Lys(DOTA)-NH2]	> 8 pIC50	> 8 pIC50			
Hexanoyl-C[Sar]PTQFC-NH2 (linker 1-7 via TBMB(SCH2CH2NH-DOTA); SMILES CCCCCC(=O)N[C@H]1CSCc2cc(CSCCNC(=O)CN3CCN(CC(=O)O)CCN(CC(=O)O)CCN(CC(=O)O)CC3)cc(c2)CSC[C@@H](C(N)=O)NC(=O)[C@H](Cc2ccccc2)NC(=O)[C@H](CCC(N)=O)NC(=O)[C@H]([C@@H](C)O)NC(=O)[C@@H]2CCCN2C(=O)CN(C)C1=O, also called 3BP-3744) [Hex-[Cys(tMeBn(DOTA-AET))-Nmg-Pro-Thr-Gln-Phe-Cys]-NH2]	> 8 pIC50	> 8 pIC50			
